{
  "source": "patent US12570750B2",
  "about": "“Antibodies that bind adenosine A2A receptors and methods of use thereof to treat cancer and neurological diseases” (Twist Bioscience Corporation, priority 2019, dated 2026)",
  "target": "adenosine A2A receptor (Homo sapiens, UniProt P29274)",
  "sequence (P29274 whole entry)": "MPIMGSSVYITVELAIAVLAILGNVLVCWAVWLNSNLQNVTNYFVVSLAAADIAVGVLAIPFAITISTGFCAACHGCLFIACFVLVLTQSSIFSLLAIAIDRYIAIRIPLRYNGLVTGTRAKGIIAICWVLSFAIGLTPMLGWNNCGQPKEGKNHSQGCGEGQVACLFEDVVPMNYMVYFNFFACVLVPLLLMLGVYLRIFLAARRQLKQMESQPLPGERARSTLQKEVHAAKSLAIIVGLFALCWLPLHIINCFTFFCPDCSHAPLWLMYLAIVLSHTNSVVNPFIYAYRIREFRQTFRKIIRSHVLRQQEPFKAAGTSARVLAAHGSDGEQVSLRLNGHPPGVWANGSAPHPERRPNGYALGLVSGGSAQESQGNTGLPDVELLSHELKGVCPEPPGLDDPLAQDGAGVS",
  "test": "LANCE allosteric cAMP assay: titrated IgG, then fixed NECA concentration",
  "type": "cell-based",
  "conditions": "Table 12",
  "procedure": "A2A-1 and A2A-9 were assayed for allosteric modulation.\nA2A-9 was assayed as described in Example 16.",
  "data": [
    {"molecule": "A2A-9: A2AR variant immunoglobulin, CDRH1-3 SEQ ID NOs 14/103/192 (antibody, V domains shown) VH: EVQLQQSGPGLVKPSQSLSLTCSVTGYSITSGYYWNWIRQFPGKKLEWMGYIRYDGSNNYNPSLKNRISITRDTSKNQFFLKLNSVTTDDTATYYCARVHHYYGSSYFDYWGQGTTLTVSS VL: DIVMTQSQKFMSTSVGDRVSATCKASQNVGSSVAWFQQKPGQSPKALIYSTSYRYSGVPDRFTGSGSGTDFTLTISNVQSEDLAEYFCQQYNSYPLTFGAGTKLEIK", "values": [
      {"measurement": "Functional classification, Example 18", "result": "antagonist"}
    ]}
  ]
}
